According to patent US6051381, “Prokaryotic two-hybrid system” (dated 2000):

Columns and labels:
E6-LexA (E. coli; HPV) [1] = target: E6-LexA (E. coli; HPV) (UniProt P0A7C2); assay: E. coli two-hybrid, lacZ repression; 0.5 mM IPTG, 50 ng/ml anhydrotetracycline; reporter P3IHFLexAimpX
[2] = target: Jun-LexADNA (mouse; E. coli) (UniProt P05627); assay: E. coli two-hybrid, lacZ repression; reporter construct P3IHFLexAOpX
[3] = target: Jun-LexADNA (mouse; E. coli) (UniProt P05627); assay: E. coli two-hybrid, lacZ repression; reporter construct P3IHFLexAOpmH
[4] = target: Fos-LexA (E. coli; mouse) (UniProt P01101); assay: E. coli two-hybrid, lacZ repression; reporter plasmid P3IHFLexAOpimpX
[5] = target: Jun-LexADNA (mouse; E. coli) (UniProt P05627); assay: E. coli two-hybrid, lacZ repression; reporter construct P3IHFLexAOpH
[6] = target: Jun-LexADNA (mouse; E. coli) (UniProt P05627); assay: E. coli two-hybrid, lacZ repression; reporter construct P3
[7] = target: Jun-LexADNA (mouse; E. coli) (UniProt P05627); assay: E. coli two-hybrid, lacZ repression; reporter construct P3LexAOpH
[8] = target: Jun-LexADNA (mouse; E. coli) (UniProt P05627); assay: E. coli two-hybrid, lacZ repression; reporter construct P3LexAOpX
E6-LexA (E. coli; HPV) [9] = target: E6-LexA (E. coli; HPV) (UniProt P0A7C2); assay: E. coli two-hybrid, lacZ repression; non-interacting control pair; reporter P3IHFLexAimpX
zip-LexADNA (E. coli) [10] = assay: E. coli two-hybrid, lacZ repression; reporter construct P3LexAOpH
zip-LexADNA (E. coli) [11] = assay: E. coli two-hybrid, lacZ repression; reporter construct P3LexAOpX
zip-LexADNA (E. coli) [12] = assay: E. coli two-hybrid, lacZ repression; reporter construct P3IHFLexAOpX
zip-LexADNA (E. coli) [13] = assay: E. coli two-hybrid, lacZ repression; reporter construct P3
zip-LexADNA (E. coli) [14] = assay: E. coli two-hybrid, lacZ repression; reporter construct P3IHFLexAOpH
zip-LexADNA (E. coli) [15] = assay: E. coli two-hybrid, lacZ repression; reporter construct P3IHFLexAOpmH
wild-type AraC = target: T1, wild-type AraC (E. coli, UniProt P0A9E0); assay: E. coli two-hybrid, lacZ repression, reporter P3IHFLexAOpimpX
T1 sequence: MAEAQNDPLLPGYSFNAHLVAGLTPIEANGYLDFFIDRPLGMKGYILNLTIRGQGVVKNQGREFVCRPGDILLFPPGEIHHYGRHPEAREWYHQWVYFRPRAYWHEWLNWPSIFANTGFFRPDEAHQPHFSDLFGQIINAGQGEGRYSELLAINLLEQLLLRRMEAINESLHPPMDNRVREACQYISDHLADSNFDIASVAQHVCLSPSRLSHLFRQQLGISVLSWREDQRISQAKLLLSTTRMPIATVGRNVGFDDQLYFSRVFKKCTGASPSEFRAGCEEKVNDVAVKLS

E6AP-AraCDNA (from UniProt Q05086)
repression ratio (E6-LexA (E. coli; HPV) [1]): > 30 fold

AraCDNA
repression ratio [2]: 1.1 | repression ratio [3]: 1.09

Jun-AraC (from UniProt P05627)
repression ratio [4]: 11 fold

Fos-AraCDNA (from UniProt P01101)
repression ratio [5]: 1.9 | repression ratio [6]: 1.1 | repression ratio [7]: 2 | repression ratio [8]: 2.3 | repression ratio [2]: 4.2

B1: AraCDNA (protein)
chain: ESLHPPMDNRVREACQYISDHLADSNFDIASVAQHVCLSPSRLSHLFRQQLGISVLSWREDQRISQAKLLLSTTRMPIATVGRNVGFDDQLYFSRVFKKCTGASPSEFRAGCEEKVNDVAVKLS
repression ratio (E6-LexA (E. coli; HPV) [9]): 1.5 | repression ratio (zip-LexADNA (E. coli) [10]): 1 | repression ratio (zip-LexADNA (E. coli) [11]): 1.1 | repression ratio (zip-LexADNA (E. coli) [12]): 1.2 | repression ratio (zip-LexADNA (E. coli) [13]): 1.2 | repression ratio (zip-LexADNA (E. coli) [14]): 1.1 | repression ratio (zip-LexADNA (E. coli) [15]): 0.9

B2: Fos-LexA (other)
chain: RGKVEQLSPEEEEKRRIRRERNKMAAAKCRNRRRELTDTLQAETDQLEDEKSALQTEIANLLKEKEKLEFILAAHRPACKIPDDLGFPEEMSV
binding result (wild-type AraC): no binding

B3: wild-type AraC (protein)
chain: T1 sequence
repression ratio (zip-LexADNA (E. coli) [10]): 1.1 | repression ratio (zip-LexADNA (E. coli) [11]): 1.2 | repression ratio (zip-LexADNA (E. coli) [12]): 1.2 | repression ratio (zip-LexADNA (E. coli) [13]): 1.2 | repression ratio (zip-LexADNA (E. coli) [14]): 1 | repression ratio (zip-LexADNA (E. coli) [15]): 1.06
